# In paper PMC6423188, “HYNIC and DOMA conjugated radiolabeled bombesin analogs as receptor-targeted probes for scintigraphic detection of breast tumor” (EJNMMI Research, 2019):
# Experiments:
# physchem = format: physicochemical; settings: pH 7.4
# Protocol: Lipophilicity of the HPLC-purified radiopeptide analogs was determined through octanol/water partition coefficients, determined at pH 7.4 by measuring the distribution of the HPLC purified radiolabeled peptides in 1-octanol and PBS. Then, 50 μL HPLC purified ^99mTc-BN1/^99mTc-BN2/^99mTc-BN3/^99mTc-BN4/^99mTc-BNS with 100 μCi of radiolabeled compound in PBS was added to a to a centrifuge tube containing 1 mL n-octanol and 1 mL PBS (0.025 M, pH 7.4). The tube was vortexed at room temperature for 2 min and they are centrifuged at 5000 rpm for 5 min to ensure complete separation of layers. Further, 100 μL of each phase was transferred into a separate pre-weighed vial and measured in the well γ-counter. The ratio of octanol layer counts to aqueous layer counts was expressed as the distribution coefficient (D, the appropriate descriptor for ionizable compounds) and logD was used for determination of lipophilicity. Counts per unit weight of the sample were calculated, and logD value as calculated as follows:
# log10D = log10 [(cpm in octanol – cpm in background) / (cpm in buffer – cpm in background)]
# in vitro = in vitro ADME; settings: rat
# Protocol: An aliquot (100 μL) of ^99mTc-BN1/^99mTc-BN2/^99mTc-BN3/^99mTc-BN4/^99mTc-BNS was added to 1 mL of freshly collected rat serum in centrifuge tube. The mixture was then incubated at 37 °C for 1 h; the serum protein was precipitated by adding 1 mL trichloroacetic acid (10%, V/V). The supernatant and precipitate were separated by centrifugation at 3000 rpm for 5 min. Radioactivities of both the phases were measured separately. The above experimental procedure was repeated three times. The percentage of protein binding was determined as: Plasma protein binding % = (precipitate counts (CPM) / [precipitate counts (CPM) + plasma counts (CPM)]) × 100%.
# [1] = tested on: MDA-MB-231 tumor-bearing mice; assay: In vivo biodistribution; set-up: species or system mouse; settings: mean ± SD, n = 3; for Tumor uptake: MDA-MB-231 tumor
# Protocol: All animal experiments were done according to the CSIR-IICB Animal Ethics Committee’s rules and regulation. Forty-eight hours before tumor cell implantation, an immunosuppressive drug (cyclosporine-A) was given intraperitoneal (i.p) at a concentration of 30 mg/kg/day. After that, MDA-MB-231 cells (5 × 10^6) 0.2 mL were implanted subcutaneously into the left flanks of the hind leg of BALB/c mice. Thereafter, the same dose of cyclosporine was given i.p. daily up to 2 weeks. Two weeks after inoculation of the tumor cells, when tumors reached ~ 0.5 cm in mean diameter, the tumor-bearing mice were used for biodistribution and imaging studies. Animals were monitored daily and their weights were recorded. Control group of mice received only 0.9 wt% saline. After cell implantation, the growth rate of the breast tumor followed a satisfactory pattern of spheroid shape and tumors are palpable within 2 to 4 weeks. MDA-MB-231 cell implanted mice tumor models were used for biodistribution and planar imaging studies of these radiolabeled new bombesin analogs.
# In tissue biodistribution studies, tumor-bearing animals were divided into four groups and well hydrated for 1 h by intraperitoneal administration of saline (0.9%, 2 mL). Three animals per groups were used for biodistribution studies. After that, the radiolabeled new bombesin analogs (^99mTc-BN) were injected intravenously in each animal of each group consequently through the tail vein [24–27]. After 5, 30, 60, and 120 min intravenous administrations of radiolabeled analogs, the animals were sacrificed; blood, heart, lung, liver, kidney, stomach, intestine, spleen, pancreas, brain, muscle, and tumor were excised, weighed, and counted for radioactivity. The organ uptake was calculated as a percentage of the injected activity per gram of wet tissue (%IA/g). In order to evaluate whether binding of bombesin analogs to MDA-MB-231 cells in vivo is specific; blocking studies with ^99mTc-labeled bombesin analogs in tumor-bearing mice were carried out. Groups of three animals were injected 0.03 nmol of ^99mTc-labeled BN analogs (2 MBq) with 25 nmol of non-radiolabeled BN peptide. After 60 min and 120 min, mice were sacrificed and the organs were collected. Each organ was weighed and counted in a gamma counter along with activity standard and percentage of injected activity per gram (%IA/g) of tissue was calculated for each type of tissues. Counts were corrected for background radiation and physical decay of the radioactivity. The uptake was expressed in the percentage of injected activity per gram of each organ (%IA/g). Data were analyzed statistically by the t test, with the level of significance set at P < 0.05.
# [2] = 60 min p.i., blocked with excess non-radiolabeled BN peptide
substance,measurement,setting,value
^99mTc-HYNIC-Pro-Asp-[Tyr^13Met^14]BN(7-14)NH2 [99mTc-BN2],logD,physchem,− 1.78 ± 0.04
same,Percentage of plasma protein binding,in vitro,41.23%
same,Tumor uptake,"[1]; 5 min p.i., i.v.",0.79 ± 0.12 %IA/g
same,Blood uptake,"[1]; 5 min p.i., i.v.",1.03 ± 0.05 %IA/g
same,Heart uptake,"[1]; 5 min p.i., i.v.",0.59 ± 0.02 %IA/g
same,Intestine uptake,"[1]; 5 min p.i., i.v.",0.73 ± 0.03 %IA/g
same,Kidney uptake,"[1]; 5 min p.i., i.v.",2.05 ± 0.10 %IA/g
same,Liver uptake,"[1]; 5 min p.i., i.v.",1.47 ± 0.07 %IA/g
same,Lung uptake,"[1]; 5 min p.i., i.v.",0.91 ± 0.04 %IA/g
same,Muscle uptake,"[1]; 5 min p.i., i.v.",0.24 ± 0.01 %IA/g
same,Pancreas uptake,"[1]; 5 min p.i., i.v.",0.95 ± 0.01 %IA/g
same,Spleen uptake,"[1]; 5 min p.i., i.v.",0.95 ± 0.04 %IA/g
same,Stomach uptake,"[1]; 5 min p.i., i.v.",0.74 ± 0.03 %IA/g
same,Urine + urinary bladder uptake,"[1]; 5 min p.i., i.v.",0.56 ± 0.02 %IA/g
same,Tumor uptake,"[1]; 30 min p.i., i.v.",1.85 ± 0.05 %IA/g
same,Blood uptake,"[1]; 30 min p.i., i.v.",0.78 ± 0.03 %IA/g
same,Heart uptake,"[1]; 30 min p.i., i.v.",0.46 ± 0.01 %IA/g
same,Intestine uptake,"[1]; 30 min p.i., i.v.",1.05 ± 0.05 %IA/g
same,Kidney uptake,"[1]; 30 min p.i., i.v.",4.76 ± 0.20 %IA/g
same,Liver uptake,"[1]; 30 min p.i., i.v.",1.23 ± 0.06 %IA/g
same,Lung uptake,"[1]; 30 min p.i., i.v.",0.89 ± 0.11 %IA/g
same,Muscle uptake,"[1]; 30 min p.i., i.v.",0.20 ± 0.02 %IA/g
same,Pancreas uptake,"[1]; 30 min p.i., i.v.",2.07 ± 0.10 %IA/g
same,Spleen uptake,"[1]; 30 min p.i., i.v.",0.75 ± 0.03 %IA/g
same,Stomach uptake,"[1]; 30 min p.i., i.v.",1.01 ± 0.05 %IA/g
same,Urine + urinary bladder uptake,"[1]; 30 min p.i., i.v.",1.92 ± 0.07 %IA/g
same,Tumor uptake,[1]; [2],0.78 ± 0.03 %IA/g
same,Blood uptake,[1]; [2],0.38 ± 0.01 %IA/g
same,Heart uptake,[1]; [2],0.27 ± 0.02 %IA/g
same,Intestine uptake,[1]; [2],1.25 ± 0.02 %IA/g
same,Kidney uptake,[1]; [2],3.37 ± 0.10 %IA/g
same,Liver uptake,[1]; [2],1.09 ± 0.04 %IA/g
same,Lung uptake,[1]; [2],0.73 ± 0.04 %IA/g
same,Muscle uptake,[1]; [2],0.20 ± 0.02 %IA/g
same,Pancreas uptake,[1]; [2],0.85 ± 0.02 %IA/g
same,Spleen uptake,[1]; [2],0.45 ± 0.03 %IA/g
same,Stomach uptake,[1]; [2],0.70 ± 0.02 %IA/g
same,Urine + urinary bladder uptake,[1]; [2],4.50 ± 0.08 %IA/g
same,Tumor uptake,"[1]; 60 min p.i., i.v.",0.98 ± 0.04 %IA/g
same,Blood uptake,"[1]; 60 min p.i., i.v.",0.35 ± 0.01 %IA/g
same,Heart uptake,"[1]; 60 min p.i., i.v.",0.23 ± 0.12 %IA/g
same,Intestine uptake,"[1]; 60 min p.i., i.v.",1.46 ± 0.02 %IA/g
same,Kidney uptake,"[1]; 60 min p.i., i.v.",3.34 ± 0.16 %IA/g
same,Liver uptake,"[1]; 60 min p.i., i.v.",1.01 ± 0.05 %IA/g
same,Lung uptake,"[1]; 60 min p.i., i.v.",0.78 ± 0.03 %IA/g
same,Muscle uptake,"[1]; 60 min p.i., i.v.",0.18 ± 0.03 %IA/g
same,Pancreas uptake,"[1]; 60 min p.i., i.v.",1.08 ± 0.05 %IA/g
same,Spleen uptake,"[1]; 60 min p.i., i.v.",0.48 ± 0.02 %IA/g
same,Stomach uptake,"[1]; 60 min p.i., i.v.",0.82 ± 0.04 %IA/g
same,Urine + urinary bladder uptake,"[1]; 60 min p.i., i.v.",4.54 ± 0.22 %IA/g
same,Tumor uptake,"[1]; 120 min p.i., i.v.",0.54 ± 0.02 %IA/g
same,Blood uptake,"[1]; 120 min p.i., i.v.",0.07 ± 0.01 %IA/g
same,Heart uptake,"[1]; 120 min p.i., i.v.",0.12 ± 0.01 %IA/g
same,Intestine uptake,"[1]; 120 min p.i., i.v.",0.18 ± 0.01 %IA/g
same,Kidney uptake,"[1]; 120 min p.i., i.v.",2.45 ± 0.12 %IA/g
same,Liver uptake,"[1]; 120 min p.i., i.v.",0.53 ± 0.02 %IA/g
same,Lung uptake,"[1]; 120 min p.i., i.v.",0.42 ± 0.02 %IA/g
same,Muscle uptake,"[1]; 120 min p.i., i.v.",0.12 ± 0.04 %IA/g
same,Pancreas uptake,"[1]; 120 min p.i., i.v.",0.89 ± 0.04 %IA/g
same,Spleen uptake,"[1]; 120 min p.i., i.v.",0.24 ± 0.11 %IA/g
same,Stomach uptake,"[1]; 120 min p.i., i.v.",0.41 ± 0.02 %IA/g
same,Urine + urinary bladder uptake,"[1]; 120 min p.i., i.v.",5.55 ± 0.03 %IA/g
